Numbering of substitutions follows the chain as printed. Names and notes keep the numbering of the source. Ends that are not written are not given here.
B1: MYB29 DBD (residues M1-H126): DBD of MYB29 (residues M1-H126) (protein)
chain: MSRKPCCVGEGLKKGAWTAEEDKKLISYIHEHGEGGWRDIPQKAGLKRCGKSCRLRWANYLKPDIKRGEFSYEEEQIIIMLHASRGNKWSVIARHLPKRTDNEIKNYWNTHLKKLLIDKGIDPVTH
modifications: left off: NubG and FRB (from the vector pFRB), end not stated, kept
B2: MYB113: MYB TF from subgroup 6 (protein)
chain: MGESPKGLRKGTWTTEEDILLRQCIDKYGEGKWHRVPLRTGLNRCRKSCRLRWLNYLKPSIKRGKLCSDEVDLVLRLHKLLGNRWSLIAGRLPGRTANDVKNYWNTHLSKKHDERCCKTKMINKNITSHPTSSAQKIDVLKPRPRSFSDKNSCNDVNILPKVDVVPLHLGLNNNYVCESSITCNKDEQKDKLININLLDGDNMWWESLLEADVLGPEATETAKGVTLPLDFEQIWARFDEETLELN
modifications: left off: NubG and FRB (from the vector pFRB), end not stated, kept
B3: MYB51: MYB TF from subgroup 12, containing a MIM (protein)
chain: MVRTPCCKAELGLKKGAWTPEEDQKLLSYLNRHGEGGWRTLPEKAGLKRCGKSCRLRWANYLRPDIKRGEFTEDEERSIISLHALHGNKWSAIARGLPGRTDNEIKNYWNTHIKKRLIKKGIDPVTHKGITSGTDKSENLPEKQNVNLTTSDHDLDNDKAKKNNKNFGLSSASFLNKVANRFGKRINQSVLSEIIGSGGPLASTSHTTNTTTTSVSVDSESVKSTSSSFAPTSNLLCHGTVATTPVSSNFDVDGNVNLTCSSSTFSDSSVNNPLMYCDNFVGNNNVDDEDTIGFSTFLNDEDFMMLEESCVENTAFMKELTRFLHEDENDVVDVTPVYERQDLFDEIDNYFG
modifications: left off: NubG and FRB (from the vector pFRB), end not stated, kept
notes: MYB TF from subgroup 12, containing a MIM
B4: MYB29 non-MYB region (G120-I336): non-MYB region of MYB29 (G120-I336) (protein)
chain: GIDPVTHKPLAYDSNPDEQSQSGSISPKSLPPSSSKNVPEITSSDETPKYDASLSSKKRCFKRSSSTSKLLNKVAARASSMGTILGASIEGTLISSTPLSSCLNDDFSETSQFQMEEFDPFYQSSEHIIDHMKEDISINNSEYDFSQFLEQFSNNEGEEADNTGGGYNQDLLMSDVSSTSVDEDEMMQNITGWSNYLLDHSDFNYDTSQDYDDKNFI
modifications: left off: NubG and FRB (from the vector pFRB), end not stated, kept
B5: MYB47: R2R3 MYB TF containing 165LLNKLA170 (protein)
chain: MGRTTWFDVDGMKKGEWTAEEDQKLGAYINEHGVCDWRSLPKRAGLQRCGKSCRLRWLNYLKPGIRRGKFTPQEEEEIIQLHAVLGNRWAAMAKKMQNRTDNDIKNHWNSCLKKRLSRKGIDPMTHEPIIKHLTVNTTNADCGNSSTTTSPSTTESSPSSGSSRLLNKLAAGISSRQHSLDRIKYILSNSIIESSDQAKEEEEKEEEEEERDSMMGQKIDGSEGEDIQIWGEEEVRRLMEIDAMDMYEMTSYDAVMYESSHILDHLF
modifications: left off: NubG and FRB (from the vector pFRB), end not stated, kept
notes: R2R3 MYB TF containing 165LLNKLA170
B6: MYB29 mut: MYB29 with mutations to abolish the MIM: L190K, K192N and A194Y (protein)
chain: MSRKPCCVGEGLKKGAWTAEEDKKLISYIHEHGEGGWRDIPQKAGLKRCGKSCRLRWANYLKPDIKRGEFSYEEEQIIIMLHASRGNKWSVIARHLPKRTDNEIKNYWNTHLKKLLIDKGIDPVTHKPLAYDSNPDEQSQSGSISPKSLPPSSSKNVPEITSSDETPKYDASLSSKKRCFKRSSSTSKLKNNVYARASSMGTILGASIEGTLISSTPLSSCLNDDFSETSQFQMEEFDPFYQSSEHIIDHMKEDISINNSEYDFSQFLEQFSNNEGEEADNTGGGYNQDLLMSDVSSTSVDEDEMMQNITGWSNYLLDHSDFNYDTSQDYDDKNFI
modifications: left off: NubG and FRB (from the vector pFRB), end not stated, kept
notes: MYB29 with mutations to abolish the MIM: L190K, K192N and A194Y
B7: WT: MYB29 (AAs 120-222); MIM sequence - S TS KL LNK VA ARA SS - (protein)
chain: B6 chain with K190L, N192K, Y194A
modifications: left off: NubG and FRB (from the vector pFRB), end not stated, kept
B8: MYB21: MYB TF from subgroup 19 (protein)
chain: MEKRGGGSSGGSGSSAEAEVRKGPWTMEEDLILINYIANHGDGVWNSLAKSAGLKRTGKSCRLRWLNYLRPDVRRGNITPEEQLIIMELHAKWGNRWSKIAKHLPGRTDNEIKNFWRTRIQKYIKQSDVTTTSSVGSHHSSEINDQAASTSSHNVFCTQDQAMETYSPTPTSYQHTNMEFNYGNYSAAAVTATVDYPVPMTVDDQTGENYWGMDDIWSSMHLLNGN
modifications: left off: NubG and FRB (from the vector pFRB), end not stated, kept
B9: L190A: mutated MYB29 (AAs 120-222); MIM sequence - S TS KL ANK VA ARA SS - (protein)
chain: GIDPVTHKPLAYDSNPDEQSQSGSISPKSLPPSSSKNVPEITSSDETPKYDASLSSKKRCFKRSSSTSKLANKVAARASSMGTILGASIEGTLISSTPLSSCL
modifications: left off: NubG and FRB (from the vector pFRB), end not stated, kept
B10: N191Q: mutated MYB29 (AAs 120-222); MIM sequence - S TS KL LQK VA ARA SS - (protein)
chain: B9 chain with A71L, N72Q
modifications: left off: NubG and FRB (from the vector pFRB), end not stated, kept
B11: N191L: mutated MYB29 (AAs 120-222); MIM sequence - S TS KL LLK VA ARA SS - (protein)
chain: B9 chain with A71L, N72L
modifications: left off: NubG and FRB (from the vector pFRB), end not stated, kept
B12: L190F: mutated MYB29 (AAs 120-222); MIM sequence - S TS KL FNK VA ARA SS - (protein)
chain: B9 chain with A71F
modifications: left off: NubG and FRB (from the vector pFRB), end not stated, kept

Experiments:
[1] = system: MYC4; test: Split-ubiquitin assay, MYC4 as bait; format: cell-based, Arabidopsis thaliana; details: yeast, SD-AHLW growth
Procedure: (§1) The rapamycin-compatible yeast strain NMY51 TOR1-1 Δfpr1 ([35]) was transformed according to DUALhunter™ kit instructions (Dualsystems biotech). Briefly, overnight 2×YPAD cultures were diluted to OD600 = 0.2, and incubated at 30°C, 150 RPM for 4–6 h in 2×YPAD, before harvesting the cells by centrifugation at 700 g for 5 min. The cells were washed with H2O, then 0.1 M LiOAc, before resuspending in 0.1 M LiOAc with 15% glycerol. The competent cells were then aliquoted and stored at −80°C until transformation. For double transformation with bait and prey plasmids, competent cells were thawed on ice, and mixed with transformation mix (240 μl 50% PEG-3350, 35 μl 1 M LiOAc and 25 μl 2 mg/ml ssDNA per transformation) and 200 ng of each plasmid, before being exposed to a 42°C heat shock in a water bath for 45 min. The cells were then chilled on ice for a few minutes, sedimented by centrifugation (3000 g, 1 min), resuspended in sterile H2O, plated on SD-LW plates and grown at 30°C for 2–3 days.
(§2) For drop tests, cells from three individual colonies of each bait/prey combination were grown overnight in liquid SD-LW media. Next day, culture densities were normalized to OD600 = 0.05, dilution series (OD600 = 0.05, OD600 = 0.005, OD600 = 0.0005 and OD600 = 0.00005) were spotted on square plates (SD-LW, SD-AHLW and SD-AHLW+Rapa) and grown for 2 days at 30°C before taking pictures.
(§3) To identify interaction sites mediating specific MYB–MYC complex formation, we selected two TFs from each family. These were MYB28 and MYB29 from MYB subgroup 12, and two of their partner bHLH TFs, MYC3 and MYC4. To define the region mediating the interactions we applied a chemically inducible dimerization split-ubiquitin system ([35]). […] This is used as an in-built positive control for correct expression and functionality of the prey fusion protein and thereby reduces the incidence of false negatives.

[2] = system: MYC3; test: Split-ubiquitin assay, MYC3 as bait; format: cell-based, Arabidopsis thaliana; details: yeast, SD-AHLW growth
Procedure: as §1, §2, §3

| Molecule | interaction with MYC4 (in words) [1] | interaction with MYC3 (in words) [2] |
| --- | --- | --- |
| MYB32: MYB TF from subgroup 4 | did not | did not |
| MYB29 (S175-L222): 47-residue fragment of MYB29 (S175-L222) (SKKRCFKRSSSTSKLLNKVAARASSMGTILGASIEGTLISSTPLSSCL; not fully specified; cysteine pairing not given here) | sufficient for the interaction | – |
| B1 | neither sufficient, nor necessary for the interaction | – |
| B2 | did not | did not |
| B3 | interacted with both MYC3 and MYC4 | interacted with both MYC3 and MYC4 |
| B4 | mediated by the non-MYB region | – |
| B5 | we could confirm those interactions | we could confirm those interactions |
| B6 | abolished interaction with MYC3 and MYC4 | abolished interaction with MYC3 and MYC4 |
| B7 | interacted with both MYC3 and MYC4 | interacted with both MYC3 and MYC4 |
| B8 | not able to reproduce the interaction | not able to reproduce the interaction |
| B9 | abolished the interaction | abolished the interaction |
| B10 | weakly interacting | – |
| B11 | weakly interacting | – |
| B12 | weakly interacting | – |

— article PMC6765112, “Specificity of MYB interactions relies on motifs in ordered and disordered contexts” (Nucleic Acids Research, 2019)
